In patent publication CN112980885A (HENGYI BIOMEDICAL TECH SHANGHAI CO LTD, dated 2021):
Changes are numbered by the printed parent chain.

B1: 抗体15A7 (antibody, V domains shown)
VH: QVQLVQSGAEVKKPGASVKVSCKASGYTFTSYDINWVRQASGQGLEWMGWMNPNSANPGYAQKFQGRVTMTRNTSISTAFMELSSLRSDDTAVYYCARARVTIHYDILTGYYSNAFDIWGQGTMVAVSS
VL: DIQMTQSPSSLSASVGDRVTITCRASQTISSYLNWYQQKPGKAPKLLIYAASSLQSGVPSRFSGSGSGADFTLTISSLQPEDFATYYCQQSYTTFMYTFGQGTMLEIK
B2: 抗体37G2 (antibody, V domains shown)
VH: QVQLVQSGAEVKKPGSSVKVSCKASGGTFSSYAITWVRQAPGQGLEWMGGIIPIFGTANFAQKFQGRVTITADESTSTAYMELSSLRSEDTAVYYCAHLGGFADPFDYWGQGTLVTVSS
VL: EIVLTQSPATLSLSPGERATLSCRASQSVSNYLAWYQQKAGQAPRVLIYDAFNRATGIPARFSGSGSGTDFTLTISSLEPEDFAVYYCQQRSNWPPRITFGQGTRLEIK
B3: 抗体31C2 (antibody, V domains shown)
VH: QVQLVQSGAEVKKPGSSVKVSCKASGGTFSSYAISWVRQAPGQGLEWMGGIIPIFGTTNYAQKFQGRVTITADESTSTAYMELNSLRSEDTAVYYCAGRSAYGDKGYYFDYWGQGTLVTVSS
VL: B2 VL with Y32F, A40P, V46L, F52S, E79Q, R97Q, I98E, R105K, L106V

Molecular target: 真实SARS-CoV-2(活病毒)
Test: cell-based or functional assay

Binder | EC50 (活病毒在Vero-E6细胞中的活体外中和分析) [µg/mL]
B1 | 0.61
B2 | 1.37
B3 | 0.57
